Data published in patent publication US20250257142A1 (INVETX, published 2025).

T1: extracellular domain of canine IL-31RA fused to murine IgG2A Fc (canine)
T1 construct: also called Canine IL-31RA-murine IgG2A Fc; Canine IL-31RA-mFc
T1 chain: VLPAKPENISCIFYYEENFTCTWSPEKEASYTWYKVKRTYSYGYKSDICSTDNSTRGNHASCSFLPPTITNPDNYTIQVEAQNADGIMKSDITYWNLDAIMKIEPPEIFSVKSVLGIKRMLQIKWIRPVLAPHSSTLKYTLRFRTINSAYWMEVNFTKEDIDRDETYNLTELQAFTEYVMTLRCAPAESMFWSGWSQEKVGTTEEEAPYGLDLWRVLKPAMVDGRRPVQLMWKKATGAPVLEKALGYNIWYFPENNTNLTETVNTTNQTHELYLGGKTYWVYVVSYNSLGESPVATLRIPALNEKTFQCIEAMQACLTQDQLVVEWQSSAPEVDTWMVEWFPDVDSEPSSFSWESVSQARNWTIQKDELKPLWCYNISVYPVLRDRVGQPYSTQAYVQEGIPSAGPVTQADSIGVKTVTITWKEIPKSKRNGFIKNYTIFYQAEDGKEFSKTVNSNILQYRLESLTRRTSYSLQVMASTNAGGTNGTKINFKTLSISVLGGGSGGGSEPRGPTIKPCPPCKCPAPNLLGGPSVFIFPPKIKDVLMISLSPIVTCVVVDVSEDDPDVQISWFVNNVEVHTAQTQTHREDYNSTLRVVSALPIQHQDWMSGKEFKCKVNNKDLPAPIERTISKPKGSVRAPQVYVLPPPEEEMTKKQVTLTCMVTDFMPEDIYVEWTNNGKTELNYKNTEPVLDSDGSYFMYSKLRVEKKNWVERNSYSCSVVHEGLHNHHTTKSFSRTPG


What was measured:
[1] = molecular target: T1, extracellular domain of canine IL-31RA …; experiment: SPR Biacore T200, antibody captured on anti-dog H+L chip, canine IL-31RA-mFc as analyte; relative affinity scale: *** 3 pM-100 pM, ** 101 pM-1 nM, * 1.1 nM-20 nM (avidity)
Experimental: (§1) Seven days following the transient transfection, the IgG in the conditioned medium was purified using MabSelect SuRe chromatography. The antibodies were buffer-exchanged into PBS, pH 7.4. The relative affinity of the variants was determined by SPR on a Biacore T200. The antibody was captured using a CM5 Series S chip amine coupled with an anti-dog H+L antibody (Jackson Immunoresearch). Canine IL-31RA-mFc (100 nM, 50 nM, 25 nM, 12.5 nM, 6.25 nM, 3.625 nM) solutions in 1×HBS-EP+ was flown over the sensor chip for a contact time of 120 s and a dissociation time of 600 s at a flow rate of […]. Double reference-subtracted sensorgrams were fitted to a 1:1 binding model using Biacore T200 Evaluation software. The canine IL-31RA antigen was both a dimer and aggregated so there were avidity effects with the measured affinities. […] Following the initial results with the single variants, a heavy chain containing the W53F variant and the M118I variant was synthesized and subcloned into pcDNA 3.4 (SEQ ID NO:18). The same methods as described above for expression and purification of the variant along with measuring the relative affinity were used to determine the relative affinity of the W53F/M118I heavy chain variant combined with the S95A light chain and the N94Q light chain variants.

[2] = molecular target: T1, extracellular domain of canine IL-31RA …; experiment: as above
Experimental: as §1, with “The different heavy and light chain combinations were co-transfected into ExpiCHO cells using the ExpiCHO transfection kit (ThermoFisher; Cat. #A29133). Seven” for “Seven”

binding result [1]	relative affinity (apparent KD by SPR) [2] [nM]	Binder
binds		186-95 heavy chain M106L variant with wild-type light chain (antibody, V domains shown, Canine IgGB/kappa; signal peptides left out; also called M106L / Wild-type) VH: EVQLVESGGDLVKPGGSLRLSCVASGFTFSSYAMSWVRQAPGKGLQWVSAISGSGNSTYYADAVKGRFTISRDNAKNTLYLQMNSLRAEDTAVYYCATQVVYYFKLDVWGQGTLVTVSS VL: EIVMTQSPGSLAGSAGESVSINCKSSQSVSSNLAWYQQKPGERPKLLIYGASTRASGVPARFSSSGSGTDFTLTINNLQAEDVGDYYCQQYYNWPPFTFGQGTKLEIKR
binds		186-95 heavy chain N56Q + M106L variant with light chain W94Y variant (antibody, V domains shown, Canine IgGB/kappa; signal peptides left out; also called N56Q-M106L / W94Y) VH: EVQLVESGGDLVKPGGSLRLSCVASGFTFSSYAMSWVRQAPGKGLQWVSAISGSGQSTYYADAVKGRFTISRDNAKNTLYLQMNSLRAEDTAVYYCATQVVYYFKLDVWGQGTLVTVSS VL: EIVMTQSPGSLAGSAGESVSINCKSSQSVSSNLAWYQQKPGERPKLLIYGASTRASGVPARFSSSGSGTDFTLTINNLQAEDVGDYYCQQYYNYPPFTFGQGTKLEIKR
binds		186-95 heavy chain M106I variant with wild-type light chain (antibody, V domains shown, Canine IgGB/kappa; signal peptides left out; also called M106I / Wild-type) VH: EVQLVESGGDLVKPGGSLRLSCVASGFTFSSYAMSWVRQAPGKGLQWVSAISGSGNSTYYADAVKGRFTISRDNAKNTLYLQMNSLRAEDTAVYYCATQVVYYFKIDVWGQGTLVTVSS VL: EIVMTQSPGSLAGSAGESVSINCKSSQSVSSNLAWYQQKPGERPKLLIYGASTRASGVPARFSSSGSGTDFTLTINNLQAEDVGDYYCQQYYNWPPFTFGQGTKLEIKR
binds		186-95 heavy chain N56Q variant with wild-type light chain (antibody, V domains shown, Canine IgGB/kappa; signal peptides left out; also called N56Q / Wild-type) VH: EVQLVESGGDLVKPGGSLRLSCVASGFTFSSYAMSWVRQAPGKGLQWVSAISGSGQSTYYADAVKGRFTISRDNAKNTLYLQMNSLRAEDTAVYYCATQVVYYFKMDVWGQGTLVTVSS VL: EIVMTQSPGSLAGSAGESVSINCKSSQSVSSNLAWYQQKPGERPKLLIYGASTRASGVPARFSSSGSGTDFTLTINNLQAEDVGDYYCQQYYNWPPFTFGQGTKLEIKR
	0.003 to 0.1	109-49 heavy chain M118I variant with wild-type light chain (antibody, V domains shown, Canine IgGB/kappa; signal peptides left out; also called M118I / Wild-type) VH: EVQLVESGGDLVKPGGSLRLSCVASGFTFDDYGMSWVRQAPGKGLQWVSGINWAGGTIGYADAVKGRFTISRDNARNTVYLQMNSLRAEDTAVYYCARESPLRLGDLGGDYFYYYYYIDVWGQGTLVTVSS VL: EVVMIQTPLSLSVSPGEPASISCRASQSVSSRYLVWYLQKPGQSPQLLIYGTSSRATGVSDRFSGSGSGTDFTLRISRVEAEDVGVYYCQQYDNSPRTFGQGTKVEIKR
	1.1 to 20	109-49 heavy chain W53Y variant with wild-type light chain (antibody, V domains shown, Canine IgGB/kappa; signal peptides left out; also called W53Y / Wild-type) VH: EVQLVESGGDLVKPGGSLRLSCVASGFTFDDYGMSWVRQAPGKGLQWVSGINYAGGTIGYADAVKGRFTISRDNARNTVYLQMNSLRAEDTAVYYCARESPLRLGDLGGDYFYYYYYMDVWGQGTLVTVSS VL: EVVMIQTPLSLSVSPGEPASISCRASQSVSSRYLVWYLQKPGQSPQLLIYGTSSRATGVSDRFSGSGSGTDFTLRISRVEAEDVGVYYCQQYDNSPRTFGQGTKVEIKR
	1.1 to 20	109-49 heavy chain W53F variant with wild-type light chain (antibody, V domains shown, Canine IgGB/kappa; signal peptides left out; also called W53F / Wild-type) VH: EVQLVESGGDLVKPGGSLRLSCVASGFTFDDYGMSWVRQAPGKGLQWVSGINFAGGTIGYADAVKGRFTISRDNARNTVYLQMNSLRAEDTAVYYCARESPLRLGDLGGDYFYYYYYMDVWGQGTLVTVSS VL: EVVMIQTPLSLSVSPGEPASISCRASQSVSSRYLVWYLQKPGQSPQLLIYGTSSRATGVSDRFSGSGSGTDFTLRISRVEAEDVGVYYCQQYDNSPRTFGQGTKVEIKR
	1.1 to 20	109-49 heavy chain W53F + M118I variant with light chain S95A variant (antibody, V domains shown, Canine IgGB/kappa; signal peptides left out; also called W53F-M118I / S95A) VH: EVQLVESGGDLVKPGGSLRLSCVASGFTFDDYGMSWVRQAPGKGLQWVSGINFAGGTIGYADAVKGRFTISRDNARNTVYLQMNSLRAEDTAVYYCARESPLRLGDLGGDYFYYYYYIDVWGQGTLVTVSS VL: EVVMIQTPLSLSVSPGEPASISCRASQSVSSRYLVWYLQKPGQSPQLLIYGTSSRATGVSDRFSGSGSGTDFTLRISRVEAEDVGVYYCQQYDNAPRTFGQGTKVEIKR
	0.003 to 0.1	109-49 heavy chain M118I variant with light chain N94Q variant (antibody, V domains shown, Canine IgGB/kappa; signal peptides left out; also called M118I / N94Q) VH: EVQLVESGGDLVKPGGSLRLSCVASGFTFDDYGMSWVRQAPGKGLQWVSGINWAGGTIGYADAVKGRFTISRDNARNTVYLQMNSLRAEDTAVYYCARESPLRLGDLGGDYFYYYYYIDVWGQGTLVTVSS VL: EVVMIQTPLSLSVSPGEPASISCRASQSVSSRYLVWYLQKPGQSPQLLIYGTSSRATGVSDRFSGSGSGTDFTLRISRVEAEDVGVYYCQQYDQSPRTFGQGTKVEIKR
	1.1 to 20	109-49 heavy chain W53F + M118I variant with light chain N94Q variant (antibody, V domains shown, Canine IgGB/kappa; signal peptides left out; also called W53F-M118I / N94Q) VH: EVQLVESGGDLVKPGGSLRLSCVASGFTFDDYGMSWVRQAPGKGLQWVSGINFAGGTIGYADAVKGRFTISRDNARNTVYLQMNSLRAEDTAVYYCARESPLRLGDLGGDYFYYYYYIDVWGQGTLVTVSS VL: EVVMIQTPLSLSVSPGEPASISCRASQSVSSRYLVWYLQKPGQSPQLLIYGTSSRATGVSDRFSGSGSGTDFTLRISRVEAEDVGVYYCQQYDQSPRTFGQGTKVEIKR
	0.101 to 1	109-49 wild-type heavy chain with light chain N94Q variant (antibody, V domains shown, Canine IgGB/kappa; signal peptides left out; also called Wild-type / N94Q) VH: EVQLVESGGDLVKPGGSLRLSCVASGFTFDDYGMSWVRQAPGKGLQWVSGINWAGGTIGYADAVKGRFTISRDNARNTVYLQMNSLRAEDTAVYYCARESPLRLGDLGGDYFYYYYYMDVWGQGTLVTVSS VL: EVVMIQTPLSLSVSPGEPASISCRASQSVSSRYLVWYLQKPGQSPQLLIYGTSSRATGVSDRFSGSGSGTDFTLRISRVEAEDVGVYYCQQYDQSPRTFGQGTKVEIKR
	0.003 to 0.1	caninized antibody clone 109-49 (antibody, V domains shown, Canine IgGB and canine kappa constant domains) VH: EVQLVESGGDLVKPGGSLRLSCVASGFTFDDYGMSWVRQAPGKGLQWVSGINWAGGTIGYADAVKGRFTISRDNARNTVYLQMNSLRAEDTAVYYCARESPLRLGDLGGDYFYYYYYMDVWGQGTLVTVSS VL: EVVMIQTPLSLSVSPGEPASISCRASQSVSSRYLVWYLQKPGQSPQLLIYGTSSRATGVSDRFSGSGSGTDFTLRISRVEAEDVGVYYCQQYDNSPRTFGQGTKVEIKR
	1.1 to 20	109-49 heavy chain M118L variant with wild-type light chain (antibody, V domains shown, Canine IgGB/kappa; signal peptides left out; also called M118L / Wild-type) VH: EVQLVESGGDLVKPGGSLRLSCVASGFTFDDYGMSWVRQAPGKGLQWVSGINWAGGTIGYADAVKGRFTISRDNARNTVYLQMNSLRAEDTAVYYCARESPLRLGDLGGDYFYYYYYLDVWGQGTLVTVSS VL: EVVMIQTPLSLSVSPGEPASISCRASQSVSSRYLVWYLQKPGQSPQLLIYGTSSRATGVSDRFSGSGSGTDFTLRISRVEAEDVGVYYCQQYDNSPRTFGQGTKVEIKR
	0.003 to 0.1	109-49 wild-type heavy chain with light chain S95A variant (antibody, V domains shown, Canine IgGB/kappa; signal peptides left out; also called Wild-type / S95A) VH: EVQLVESGGDLVKPGGSLRLSCVASGFTFDDYGMSWVRQAPGKGLQWVSGINWAGGTIGYADAVKGRFTISRDNARNTVYLQMNSLRAEDTAVYYCARESPLRLGDLGGDYFYYYYYMDVWGQGTLVTVSS VL: EVVMIQTPLSLSVSPGEPASISCRASQSVSSRYLVWYLQKPGQSPQLLIYGTSSRATGVSDRFSGSGSGTDFTLRISRVEAEDVGVYYCQQYDNAPRTFGQGTKVEIKR
